These results are taken from IntAct's records for PubMed 29892012.

The chains are these.
B1: Protein Largen (Homo sapiens), Q569H4 (parent)
chain: MSAKSKGNPSSSCPAEGPPAASKTKVKEQIKIIVEDLELVLGDLKDVAKELKEVVDQIDTLTSDLQLEDEMTDSSKTDTLNSSSSGTTASSLEKIKVQANAPLIKPPAHPSAILTVLRKPNPPPPPPRLTPVKCEDPKRVVPTANPVKTNGTLLRNGGLPGGPNKIPNGDICCIPNSNLDKAPVQLLMHRPEKDRCPQAGPRERVRFNEKVQYHGYCPDCDTRYNIKNREVHLHSEPVHPPGKIPHQGPPLPPTPHLPPFPLENGGMGISHSNSFPPIRPATVPPPTAPKPQKTILRKSTTTTV
B2: Coiled-coil domain-containing protein 158 (Homo sapiens), Q5M9N0 (parent)
chain: MESKAWESNNEDLLSSSGVTSNGGSSSSFFVSSIRGTIIENTSSAGTLTQVPFFPKYEVELDSPRKIIPSPGKEHFERVLEEYSHQVKDLQRRLNESNELHEKQKFYLRQSVIDLQTKLQEMQMERDAMADIRRRESQSQEDLRNQLQNTVHELEAAKCLKEDMLKDSNTQIEQLRKMMLSHEGVLQEIRSILVDFEEASGKKICEHDSMSTLHFRSLGSAISKILRELDTEISYLKGRIFPVEDQLEALKSESQNKIELLLQQHQDRIEQLISEHEVEITGLTEKASSARSQANSIQSQMEIIQEQARNQNSMYMRQLSDLESTVSQLRSELREAKRMYEDKTEELEKQLVLANSELTEARTERDQFSQESGNLDDQLQKLLADLHKREKELSLEKEQNKRLWDRDTGNSITIDHLRRELDNRNMEVQRLEALLKALKSECQGQMERQMAAIQGKNESLEKVSSLTAQLESTKEMLRKVVEELTAKKMTLESSERTISDLTTSLQEKERAIEATNAEITKLRSRVDLKLQELQHLKNEGDHLRNVQTECEALKLQMTEKDKVIEILRQQIENMTQLVGQHGRTAGAMQVEKAQLEKEINDRRMELKELKILKDKKDAKIRELEARVSDLELEKVKLVNAGSERLRAVKDIKQERDQLLNEVKTSRSELNNLSEEYEVLKRNFRNKSEEMEMTTNKLKMQLKSAQSELEQTRNTLKSMEGSDGHAMKVAMGMQKQITAKRGQIDALQSKIQFLEEAMTNANKEKHFLKEEKSKLSQELSTVATEKNKMAGELEVLRSQERRLKEKVTNMEVALDKASLQFAECQDIIQRQEQESVRLKLQHTLDIKELQGPGYTSNSSLKPRLLQPASVTRSHSNVPSSQSTASFLSHHSTKANTLKEDPTRDLKQLLQELRSVINEEPAVSLSKTEEDGRTSLGALEDRVRDCITESSLRSDMCHRSNNSLRDSTEGSKSSETLSREPVTLHAGDREDPSGCFTFTSAASPSVKNSASRSFNSSPKKSPVHSLLTSSVEGSIGSTSQYRSAKPIHSSDSVKDSQSPPIETTGKTCRKLQNRLESLQTLVEDLQLKNQAMSSMIRNQEKRIQKVKDQEKMLLK
partner: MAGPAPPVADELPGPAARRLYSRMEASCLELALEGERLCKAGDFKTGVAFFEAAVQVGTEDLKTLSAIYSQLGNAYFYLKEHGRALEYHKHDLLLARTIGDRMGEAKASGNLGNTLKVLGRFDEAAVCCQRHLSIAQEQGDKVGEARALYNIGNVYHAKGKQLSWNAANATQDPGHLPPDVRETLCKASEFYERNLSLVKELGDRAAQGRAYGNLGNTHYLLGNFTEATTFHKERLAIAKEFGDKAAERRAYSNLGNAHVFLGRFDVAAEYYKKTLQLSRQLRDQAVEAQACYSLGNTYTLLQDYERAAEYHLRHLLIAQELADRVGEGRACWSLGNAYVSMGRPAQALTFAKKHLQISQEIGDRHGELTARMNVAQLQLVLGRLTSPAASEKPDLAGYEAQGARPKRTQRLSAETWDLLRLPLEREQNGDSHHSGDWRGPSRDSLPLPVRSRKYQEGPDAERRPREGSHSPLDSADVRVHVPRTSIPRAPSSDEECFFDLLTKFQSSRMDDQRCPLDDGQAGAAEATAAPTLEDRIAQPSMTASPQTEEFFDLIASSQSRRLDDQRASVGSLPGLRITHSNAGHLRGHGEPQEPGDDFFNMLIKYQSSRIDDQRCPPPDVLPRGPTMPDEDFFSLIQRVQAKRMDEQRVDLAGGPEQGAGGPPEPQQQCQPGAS
B3: E3 ubiquitin-protein ligase LNX (Homo sapiens), Q8TBB1 (parent)
chain: MNQPESANDPEPLCAVCGQAHSLEENHFYSYPEEVDDDLICHICLQALLDPLDTPCGHTYCTLCLTNFLVEKDFCPMDRKPLVLQHCKKSSILVNKLLNKLLVTCPFREHCTQVLQRCDLEHHFQTSCKGASHYGLTKDRKRRSQDGCPDGCASLTATAPSPEVSAAATISLMTDEPGLDNPAYVSSAEDGQPAISPVDSGRSNRTRARPFERSTIRSRSFKKINRALSVLRRTKSGSAVANHADQGRENSENTTAPEVFPRLYHLIPDGEITSIKINRVDPSESLSIRLVGGSETPLVHIIIQHIYRDGVIARDGRLLPGDIILKVNGMDISNVPHNYAVRLLRQPCQVLWLTVMREQKFRSRNNGQAPDAYRPRDDSFHVILNKSSPEEQLGIKLVRKVDEPGVFIFNVLDGGVAYRHGQLEENDRVLAINGHDLRYGSPESAAHLIQASERRVHLVVSRQVRQRSPDIFQEAGWNSNGSWSPGPGERSNTPKPLHPTITCHEKVVNIQKDPGESLGMTVAGGASHREWDLPIYVISVEPGGVISRDGRIKTGDILLNVDGVELTEVSRSEAVALLKRTSSSIVLKALEVKEYEPQEDCSSPAALDSNHNMAPPSDWSPSWVMWLELPRCLYNCKDIVLRRNTAGSLGFCIVGGYEEYNGNKPFFIKSIVEGTPAYNDGRIRCGDILLAVNGRSTSGMIHACLARLLKELKGRITLTIVSWPGTFL
partner: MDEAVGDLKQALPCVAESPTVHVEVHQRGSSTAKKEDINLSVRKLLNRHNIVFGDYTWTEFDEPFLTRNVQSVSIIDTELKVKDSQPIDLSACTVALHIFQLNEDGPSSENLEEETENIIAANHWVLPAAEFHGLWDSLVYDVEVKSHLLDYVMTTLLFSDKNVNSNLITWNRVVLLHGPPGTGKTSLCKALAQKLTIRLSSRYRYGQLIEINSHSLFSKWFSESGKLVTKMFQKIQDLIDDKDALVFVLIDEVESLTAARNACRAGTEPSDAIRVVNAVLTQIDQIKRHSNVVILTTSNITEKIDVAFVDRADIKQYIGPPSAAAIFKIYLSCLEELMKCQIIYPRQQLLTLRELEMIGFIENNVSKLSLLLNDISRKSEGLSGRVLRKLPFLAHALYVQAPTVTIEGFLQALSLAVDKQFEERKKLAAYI
B4: E3 ubiquitin-protein ligase LNX (Homo sapiens), Q8TBB1 (parent)
chain: B3 chain
partner: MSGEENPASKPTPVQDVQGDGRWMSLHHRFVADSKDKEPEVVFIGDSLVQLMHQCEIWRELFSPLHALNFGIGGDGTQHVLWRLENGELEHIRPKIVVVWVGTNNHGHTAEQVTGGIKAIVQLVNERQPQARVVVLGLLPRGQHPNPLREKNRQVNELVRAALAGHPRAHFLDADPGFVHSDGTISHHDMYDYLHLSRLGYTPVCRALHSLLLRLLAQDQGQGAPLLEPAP
B5: E3 ubiquitin-protein ligase LNX (Homo sapiens), Q8TBB1 (parent)
chain: B3 chain
partner: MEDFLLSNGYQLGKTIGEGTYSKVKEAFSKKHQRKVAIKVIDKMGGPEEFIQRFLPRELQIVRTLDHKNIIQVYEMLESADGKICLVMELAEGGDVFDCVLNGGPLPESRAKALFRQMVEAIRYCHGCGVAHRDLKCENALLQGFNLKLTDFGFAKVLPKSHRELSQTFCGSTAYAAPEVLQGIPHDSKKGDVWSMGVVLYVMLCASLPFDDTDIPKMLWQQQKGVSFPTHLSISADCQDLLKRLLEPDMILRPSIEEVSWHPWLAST

Variants of B1 are the subject of one assay. Particulars: with abi2_human ABI2, Q9NYB9.
Sequence of abi2_human ABI2, Q9NYB9 (Q9NYB9 whole entry): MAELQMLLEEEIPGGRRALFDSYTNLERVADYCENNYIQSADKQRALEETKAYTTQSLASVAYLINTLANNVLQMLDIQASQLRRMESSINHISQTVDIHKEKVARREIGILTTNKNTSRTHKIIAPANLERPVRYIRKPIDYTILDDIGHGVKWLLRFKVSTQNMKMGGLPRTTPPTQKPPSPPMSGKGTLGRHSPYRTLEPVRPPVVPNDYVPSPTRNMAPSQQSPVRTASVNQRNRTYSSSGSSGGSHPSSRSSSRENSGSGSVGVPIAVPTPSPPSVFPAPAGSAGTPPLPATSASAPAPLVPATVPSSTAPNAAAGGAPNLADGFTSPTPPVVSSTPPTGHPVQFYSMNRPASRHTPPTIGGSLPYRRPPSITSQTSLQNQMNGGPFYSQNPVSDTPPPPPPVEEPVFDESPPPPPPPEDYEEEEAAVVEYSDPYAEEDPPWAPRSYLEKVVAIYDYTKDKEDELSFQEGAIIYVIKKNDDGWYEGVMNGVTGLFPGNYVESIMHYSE
For the variant MSAKSKGNPSSSCPAEGPPAASKTKVKEQIKIIVEDLELVLGDLKDVAKELKEVVDQIDTLTSDLQLEDEMTDSSKTDTLNSSSSGTTASSLEKIKVPANAPLIKPPAHPSAILTVLRKPNPPPPPPRLTPVKCEDPKRVVPTANPVKTNGTLLRNGGLPGGPNKIPNGDICCIPNSNLDKAPVQLLMHRPEKDRCPQAGPRERVRFNEKVQYHGYCPDCDTRYNIKNREVHLHSEPVHPPGKIPHQGPPLPPTPHLPPFPLENGGMGISHSNSFPPIRPATVPPPTAPKPQKTILRKSTTTTV [Q98P], the “effect of a mutation on the interaction” value is “with no effect”.

The next assay covers variants of B2. To be noted: with gpsm1_human GPSM1, Q86YR5.
Consider R78H, for which the “effect of a mutation on the interaction” value is “with no effect”.

In a further assay the parent is B3. To be noted: with pch2_human TRIP13, Q15645.
Take E295K: the “effect of a mutation on the interaction” value is on record as “disrupting interaction strength”.

The variants in the next assay derive from B4. To be noted: with pa1b3_human PAFAH1B3, Q15102.
For E295K, the “effect of a mutation on the interaction” value is “disrupting interaction strength”.

The variants in a further assay derive from B5. Particulars: with tssk3_human TSSK3, Q96PN8.
As for E295K, the “effect of a mutation on the interaction” value is “disrupting interaction strength”.
